The subject of this series is Escherichia coli TOP10. Put plainly: shrunken log2 fold change of peptide-encoding DNA abundance (4.5 h post-induction vs induction); higher = less antimicrobial activity (less host growth inhibition). The conditions noted are these: time post-induction: 4.5 h; library: site-saturation at positions 5, 18, 19, 20.
With RRIRKRPPRLPRPRPRPHMHPRP, the “shrunken log2 fold change” value was -0.186.

RRIRHRPPRLPRPRPRPYHYPRP: the “shrunken log2 fold change” value was -0.125.

For RRIRKRPPRLPRPRPRPWHYPRP, the “shrunken log2 fold change” value was 0.0725. For the sequence RRIRTRPPRLPRPRPRPREFPRP, the “shrunken log2 fold change” value came to 0.33.

Consider RRIRTRPPRLPRPRPRPSSWPRP, for which the “shrunken log2 fold change” value came to 0.131. For the sequence RRIRHRPPRLPRPRPRPREIPRP, the “shrunken log2 fold change” value is 0.0735. For RRIRPRPPRLPRPRPRPWMEPRP, the “shrunken log2 fold change” value was -0.0134. In the case of RRIRCRPPRLPRPRPRPDCVPRP it was 0.184; in that of RRIRNRPPRLPRPRPRPWAGPRP, 0.163; in that of RRIRIRPPRLPRPRPRPIICPRP, -0.775.

As for RRIRIRPPRLPRPRPRPVWSPRP, the “shrunken log2 fold change” value was found to be 0.0432. In the case of RRIRERPPRLPRPRPRPMWDPRP it was -0.0758. On to RRIRFRPPRLPRPRPRPHWEPRP, for which the “shrunken log2 fold change” value was -0.0104. In the case of RRIRIRPPRLPRPRPRPHSLPRP it was 0.0644. Regarding RRIRSRPPRLPRPRPRPQGCPRP, the “shrunken log2 fold change” value was -0.0814. In the case of RRIRQRPPRLPRPRPRPYDQPRP it was 0.0352; in that of RRIRIRPPRLPRPRPRPQYKPRP, -0.848. As for RRIRLRPPRLPRPRPRPTDCPRP, the “shrunken log2 fold change” value was -0.197. In the case of RRIRERPPRLPRPRPRPRDAPRP it was 0.446; in that of RRIRQRPPRLPRPRPRPLTCPRP, -0.539.

In the case of RRIRFRPPRLPRPRPRPAGCPRP, the “shrunken log2 fold change” value worked out at 0.229.

For RRIRDRPPRLPRPRPRPNLVPRP, the “shrunken log2 fold change” value was -0.0615. The result for RRIRKRPPRLPRPRPRPCWNPRP reads -0.228. On to RRIRQRPPRLPRPRPRPSRVPRP, for which the “shrunken log2 fold change” value is -0.00679. For the sequence RRIRVRPPRLPRPRPRPTEAPRP, the “shrunken log2 fold change” value came to 0.0175.

With RRIRDRPPRLPRPRPRPPQGPRP, the “shrunken log2 fold change” value was 0.289. In the case of RRIRCRPPRLPRPRPRPDESPRP, the “shrunken log2 fold change” value was 0.153. In the case of RRIRVRPPRLPRPRPRPKSQPRP it was 0.309. The result for RRIRQRPPRLPRPRPRPSMYPRP reads -1.39; that for RRIRVRPPRLPRPRPRPWCFPRP, -0.0951; that for RRIRMRPPRLPRPRPRPQWDPRP, 0.232. The result for RRIRVRPPRLPRPRPRPWYTPRP reads -0.507; that for RRIRQRPPRLPRPRPRPLVKPRP, -0.166. Turning to RRIRPRPPRLPRPRPRPDPAPRP, the “shrunken log2 fold change” value worked out at 0.326.

In the case of RRIRFRPPRLPRPRPRPAMAPRP, the “shrunken log2 fold change” value amounted to 0.0902. In the case of RRIRLRPPRLPRPRPRPKAGPRP it was 0.221.

For the sequence RRIRARPPRLPRPRPRPAVCPRP, the “shrunken log2 fold change” value was found to be 0.442.

On to RRIRNRPPRLPRPRPRPHIVPRP, for which the “shrunken log2 fold change” value was -0.249. Take RRIRQRPPRLPRPRPRPKDNPRP: the “shrunken log2 fold change” value is -0.23.

Turning to RRIRFRPPRLPRPRPRPIIIPRP, the “shrunken log2 fold change” value is -0.579. In the case of RRIRNRPPRLPRPRPRPYGDPRP it was -1.01; in that of RRIRMRPPRLPRPRPRPHKWPRP, 0.216. The result for RRIRCRPPRLPRPRPRPGHLPRP reads -0.0824; that for RRIRSRPPRLPRPRPRPMERPRP, -0.0898; that for RRIRSRPPRLPRPRPRPGWQPRP, -0.339.

On to RRIRGRPPRLPRPRPRPWMHPRP, for which the “shrunken log2 fold change” value is -0.00858. For the sequence RRIRVRPPRLPRPRPRPQSFPRP, the “shrunken log2 fold change” value was -0.111.

As for RRIRERPPRLPRPRPRPEGTPRP, the “shrunken log2 fold change” value is -0.0267. The result for RRIRHRPPRLPRPRPRPSPQPRP reads -0.358; that for RRIRKRPPRLPRPRPRPPFAPRP, 0.745.
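Further: peptides expressed intracellularly from a pBAD plasmid library in pooled LB shake-flask culture, induced with 0.3% L-arabinose, DNA abundance read by NGS, three biological replicates, DESeq2 with apeglm shrinkage.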
